Test results reported in the supplement of paper PMC7877785.
± gives the uncertainty stated by the source.

Experiment: self-splicing fitness, log relative to wild type (ln ratio); higher = more splicing; Tetrahymena group I intron in knt gene, E. coli kanamycin selection, DiMSum; sequences stand for … in CUCUCU…GGAGGGAAAAGUUAUCAGGCAUGCACCUGGUAGCUAGUCUUUAAACCAAUAGAUUGCAUCGGUUUAAAAGGCAAGACCGUCAAAUUGCGGGAAAGGGGUCAACAGCCGUUCAGUACCAAGUCUCAGGGGAAACUUUGAGAUGGCCUUGCAAAGGGUAUGGUAAUAAGCUGACGGACAUGGUCCUAACCACGCAGCCAAGUCCUAAGUCAACAGAUCUUCUGUUGAUAUGGAUGCAGUUCACAGACUAAAUGUCGGUCGGGGAAGAUGUAUUCUUCUCAUAAGAUAUAGUCGGACCUCUCCUUAAUGGGAGCUAGCGGAUGAAGUGAUGCAACACUGGAGCCGCUGGGAACUAAUUUGUAUGCGAAAGUAUAUUGAUUAGUUUUGGAGUACUCGUGGUCG
Method in brief: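 Six replicate transformations of E. coli BL21(DE3) with a pET-22b(+) library were grown overnight at 37°C or 30°C. The library randomised all eight P1ex-region intron nucleotides, the intron lying in the knt kanamycin-resistance gene, and plates were LB agar with or without 25 μg/mL kanamycin plus 100 μg/mL carbenicillin, 50 μM IPTG and 0.2% rhamnose. Pooled colonies were amplicon-sequenced on an Illumina HiSeq 2500, and fitness is the DiMSum error-weighted combination of wild-type-normalised replicate fold changes, kanamycin versus none.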

Sequence | self-splicing fitness (ln) (30 °C) | self-splicing fitness (ln) (37 °C)
CCGUAGCAAUAUUACGUCGU | -3.2 ± 0.18 | -1.25 ± 0.16
CCGUAGCAAUAUUACGUGCA | -3.06 ± 0.21 | -2.88 ± 0.15
CCGUAGCAAUAUUACGUGCC | -4.11 ± 0.47 | -2.33 ± 0.28
CCGUAGCAAUAUUACGUUGA | -2.67 ± 0.33 | -3.13 ± 0.29
CCUAAGCAAUAUUACGACAG | -0.604 ± 0.081 | -1 ± 0.11
CCUAAGCAAUAUUACGACCG | -1.24 ± 0.14 | -0.121 ± 0.13
CCUAAGCAAUAUUACGAUCG | -0.805 ± 0.15 | -0.185 ± 0.17
CCUAAGCAAUAUUACGAUUA | -3.04 ± 0.19 | -2.62 ± 0.22
CCUAAGCAAUAUUACGCAUA | -4.08 ± 0.28 | -2.77 ± 0.27
CCUAAGCAAUAUUACGCAUC | -2.22 ± 0.13 | -1.91 ± 0.13
CCUAAGCAAUAUUACGCCGU | -2.92 ± 0.19 | -3.22 ± 0.29
CCUAAGCAAUAUUACGCGAA | -2.23 ± 0.22 | -2.61 ± 0.29
CCUAAGCAAUAUUACGCGAC | -2.41 ± 0.3 | -3.61 ± 0.39
CCUAAGCAAUAUUACGCUGA | -2.63 ± 0.21 | -1.96 ± 0.32
CCUAAGCAAUAUUACGGCAC | -3.72 ± 0.25 | -2.62 ± 0.28
CCUAAGCAAUAUUACGGUUC | -3.88 ± 0.23 | -2.59 ± 0.22
CCUAAGCAAUAUUACGUAGA | -1.33 ± 0.08 | -0.523 ± 0.1
CCUAAGCAAUAUUACGUAGC | -4.03 ± 0.34 | -2.21 ± 0.23
CCUAAGCAAUAUUACGUAUA | -3 ± 0.15 | -2.67 ± 0.17
CCUAAGCAAUAUUACGUCCU | -3.74 ± 0.33 | -2.04 ± 0.24
CCUAAGCAAUAUUACGUUCC | -3.6 ± 0.3 | -1.8 ± 0.34
CCUAAGCAAUAUUACGUUGG | -3.45 ± 0.27 | -2.96 ± 0.24
CCUCAGCAAUAUUACGAAAU | -3.99 ± 0.28 | -2.15 ± 0.34
CCUCAGCAAUAUUACGAAGA | -3.71 ± 0.3 | -2.31 ± 0.25

Sequence | self-splicing fitness (ln) (30 °C) | self-splicing fitness (ln) (37 °C)
CCUCAGCAAUAUUACGACAC | -4.04 ± 0.28 | -2.5 ± 0.29
CCUCAGCAAUAUUACGACUA | -3.2 ± 0.43 | -3.06 ± 0.32
CCUCAGCAAUAUUACGAGAC | -3.31 ± 0.32 | -2.88 ± 0.35
CCUCAGCAAUAUUACGAUAC | -3.21 ± 0.26 | -3.08 ± 0.47
CCUCAGCAAUAUUACGCAGC | -3.42 ± 0.14 | -2.49 ± 0.17
CCUCAGCAAUAUUACGCAGG | -3.84 ± 0.25 | -2.5 ± 0.3
CCUCAGCAAUAUUACGCCGG | -3.32 ± 0.21 | -0.587 ± 0.15
CCUCAGCAAUAUUACGCCGU | -3.05 ± 0.23 | -2.08 ± 0.25
CCUCAGCAAUAUUACGCGAG | -2.89 ± 0.1 | -1.76 ± 0.11
CCUCAGCAAUAUUACGCGUA | -2.71 ± 0.21 | -3.37 ± 0.28
CCUCAGCAAUAUUACGGACA | -3.54 ± 0.19 | -3.15 ± 0.26
CCUCAGCAAUAUUACGGAUU | -4.3 ± 0.39 | -2.56 ± 0.22
CCUCAGCAAUAUUACGGUAC | -4.96 ± 0.32 | -2.26 ± 0.26
CCUCAGCAAUAUUACGUAAG | -0.219 ± 0.059 | 0.292 ± 0.082
CCUCAGCAAUAUUACGUACA | -3.73 ± 0.29 | -2.78 ± 0.34
CCUCAGCAAUAUUACGUACC | -4.27 ± 0.25 | -3.42 ± 0.39
CCUCAGCAAUAUUACGUGAA | -3.66 ± 0.2 | -2.22 ± 0.2
CCUCAGCAAUAUUACGUGUC | -3.35 ± 0.13 | -2.48 ± 0.2
CCUGAGCAAUAUUACGACGU | -2.28 ± 0.14 | -0.0399 ± 0.14
CCUGAGCAAUAUUACGAGCU |  | -1.95 ± 0.42
CCUGAGCAAUAUUACGAGUC |  | -2.36 ± 0.34
CCUGAGCAAUAUUACGAGUG | -1.44 ± 0.097 | -0.572 ± 0.12
CCUGAGCAAUAUUACGCAUG | -4.37 ± 0.34 | -2.27 ± 0.28
